Among the data in patent publication US20170145104A1 (Bristol-Myers Squibb, published 2017) are EC50 values, retold here.

T1: human GITR, membrane bound (on activated human T cells and on 3A9-hGITR cells) (human, UniProt Q9Y5U5 26-241)
T1 construct: whole, on cells; the cell is named under assay; also called huGITR; TNFRSF18
T1 sequence (looked up): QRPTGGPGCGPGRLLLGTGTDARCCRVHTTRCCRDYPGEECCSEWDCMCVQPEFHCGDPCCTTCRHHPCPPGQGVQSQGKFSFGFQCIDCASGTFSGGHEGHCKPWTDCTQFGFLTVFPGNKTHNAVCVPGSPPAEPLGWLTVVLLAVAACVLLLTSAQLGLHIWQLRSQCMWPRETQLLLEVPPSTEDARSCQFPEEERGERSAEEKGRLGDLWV

B1: 28F3 VH CDR3 mutant M98V, M111F (antibody, V domains shown)
VH: QVQLVESGGGVVQPGRSLRLSCAASGFTFSSYGMHWVRQAPGKGLEWVAVIWYEGSNKYYADSVKGRFTISRDNSKNTLYLQMNSLRAEDTAVYYCARGGSVVRGDYYYGFDVWGQGTTVTVSS
VL: AIQLTQSPSSLSASVGDRVTITCRASQGISSALAWYQQKPGKAPKLLIYDASSLESGVPSRFSGSGSGTDFTLTISSLQPEDFATYYCQQFNSYPYTFGQGTKLEIK
notes: also called A2
B2: 28F3 VH CDR3 mutant M98I, M111L (antibody, V domains shown)
VH: B1 VH with V102I, F111L
VL: B1 VL
notes: also called D1
B3: 28F3 VH CDR3 mutant M98Q, M111F (antibody, V domains shown)
VH: B1 VH with V102Q
VL: B1 VL
notes: also called E2
B4: 28F3 VH CDR3 mutant M98L, M111F (antibody, V domains shown)
VH: B1 VH with V102L
VL: B1 VL
notes: also called C2
B5: 28F3 VH CDR3 mutant M98Y, M111F (antibody, V domains shown)
VH: B1 VH with V102Y
VL: B1 VL
notes: also called H2
B6: 28F3 VH CDR3 mutant M98S, M111L (antibody, V domains shown)
VH: B1 VH with V102S, F111L
VL: B1 VL
notes: also called F1
B7: 28F3 VH CDR3 mutant M98Y, M111L (antibody, V domains shown)
VH: B1 VH with V102Y, F111L
VL: B1 VL
notes: also called H1
B8: 28F3 VH CDR3 mutant M98F, D106E, M111L (antibody, V domains shown)
VH: B1 VH with V102F, D106E, F111L
VL: B1 VL
notes: also called B3
B9: 28F3 VH CDR3 mutant M98A, M111F (antibody, V domains shown)
VH: B1 VH with V102A
VL: B1 VL
notes: also called G2
B10: 28F3 VH CDR3 mutant M98V, D106E, M111L (antibody, V domains shown)
VH: B1 VH with D106E, F111L
VL: B1 VL
notes: also called A3
B11: 28F3 VH CDR3 mutant M98Q, D106E, M111L (antibody, V domains shown)
VH: B1 VH with V102Q, D106E, F111L
VL: B1 VL
notes: also called E3
B12: 28F3 VH CDR3 mutant M98I, D106E, M111L (antibody, V domains shown)
VH: B1 VH with V102I, D106E, F111L
VL: B1 VL
notes: also called D3
B13: 28F3 VH CDR3 mutant M98Q, M111L (antibody, V domains shown)
VH: B1 VH with V102Q, F111L
VL: B1 VL
notes: also called E1
B14: 28F3 VH CDR3 mutant M98A, M111L (antibody, V domains shown)
VH: B1 VH with V102A, F111L
VL: B1 VL
notes: also called G1
B15: 28F3 VH CDR3 mutant M98S, M111F (antibody, V domains shown)
VH: B1 VH with V102S
VL: B1 VL
notes: also called F2
B16: 28F3 VH CDR3 mutant M98L, M111L (antibody, V domains shown)
VH: B1 VH with V102L, F111L
VL: B1 VL
notes: also called C1
B17: 28F3 VH CDR3 mutant M98Y, D106E, M111L (antibody, V domains shown)
VH: B1 VH with V102Y, D106E, F111L
VL: B1 VL
notes: also called H3
B18: 28F3 VH CDR3 mutant M98F, M111L (antibody, V domains shown)
VH: B1 VH with V102F, F111L
VL: B1 VL
notes: also called B1
B19: 28F3 VH CDR3 mutant M98L, D106E, M111L (antibody, V domains shown)
VH: B1 VH with V102L, D106E, F111L
VL: B1 VL
notes: also called C3
B20: 28F3 VH CDR3 mutant M98A, D106E, M111L (antibody, V domains shown)
VH: B1 VH with V102A, D106E, F111L
VL: B1 VL
notes: also called G3
B21: 28F3 VH CDR3 mutant M98S, D106E, M111L (antibody, V domains shown)
VH: B1 VH with V102S, D106E, F111L
VL: B1 VL
B22: 28F3 VH CDR3 mutant M98I, M111F (antibody, V domains shown)
VH: B1 VH with V102I
VL: B1 VL
notes: also called D2
B23: 28F3 VH CDR3 mutant M98V, M111L (antibody, V domains shown)
VH: B1 VH with F111L
VL: B1 VL
notes: also called A1
B24: Non mutated 28F3 (control of the VH CDR3 mutant panel) (antibody, V domains shown)
VH: B1 VH with V102M, F111M
VL: B1 VL
notes: also called H6
B25: 28F3 VH CDR3 mutant M98A, D106E (antibody, V domains shown)
VH: B1 VH with V102A, D106E, F111M
VL: B1 VL
notes: also called F5
B26: 28F3 VH CDR3 mutant M98L (antibody, V domains shown)
VH: B1 VH with V102L, F111M
VL: B1 VL
notes: also called B6
B27: 28F3 VH CDR3 mutant M98A (antibody, V domains shown)
VH: B1 VH with V102A, F111M
VL: B1 VL
notes: also called F6
B28: 28F3 VH CDR3 mutant M98L, D106E (antibody, V domains shown)
VH: B1 VH with V102L, D106E, F111M
VL: B1 VL
notes: also called B5
B29: 28F3 VH CDR3 mutant M98L, D106E, M111F (antibody, V domains shown)
VH: B1 VH with V102L, D106E
VL: B1 VL
notes: also called C4
B30: 28F3 VH CDR3 mutant M98Q, D106E, M111F (antibody, V domains shown)
VH: B1 VH with V102Q, D106E
VL: B1 VL
notes: also called D4
B31: 28F3 VH CDR3 mutant M98Q (antibody, V domains shown)
VH: B1 VH with V102Q, F111M
VL: B1 VL
notes: also called D6
B32: 28F3 VH CDR3 mutant M98F (antibody, V domains shown)
VH: B1 VH with V102F, F111M
VL: B1 VL
notes: also called A6
B33: 28F3 VH CDR3 mutant M98V, D106E (antibody, V domains shown)
VH: B1 VH with D106E, F111M
VL: B1 VL
notes: also called H4
B34: 28F3 VH CDR3 mutant M98I, D106E (antibody, V domains shown)
VH: B1 VH with V102I, D106E, F111M
VL: B1 VL
notes: also called C5; M98I/D160E
B35: 28F3 VH CDR3 mutant M98S, D106E (antibody, V domains shown)
VH: B1 VH with V102S, D106E, F111M
VL: B1 VL
notes: also called E5
B36: 28F3 VH CDR3 mutant M98A, D106E, M111F (antibody, V domains shown)
VH: B1 VH with V102A, D106E
VL: B1 VL
notes: also called F4
B37: 28F3 VH CDR3 mutant M98F, D106E, M111F (antibody, V domains shown)
VH: B1 VH with V102F, D106E
VL: B1 VL
notes: also called B4
B38: 28F3 VH CDR3 mutant M98Q, D106E (antibody, V domains shown)
VH: B1 VH with V102Q, D106E, F111M
VL: B1 VL
notes: also called D5
B39: 28F3 VH CDR3 mutant M98F, D106E (antibody, V domains shown)
VH: B1 VH with V102F, D106E, F111M
VL: B1 VL
notes: also called A5
B40: 28F3 VH CDR3 mutant M98S (antibody, V domains shown)
VH: B1 VH with V102S, F111M
VL: B1 VL
notes: also called E6
B41: 28F3 VH CDR3 mutant M98V (antibody, V domains shown)
VH: B1 VH with F111M
VL: B1 VL
notes: also called H5
B42: 28F3 VH CDR3 mutant M98I (antibody, V domains shown)
VH: B1 VH with V102I, F111M
VL: B1 VL
notes: also called C6

Substitutions are numbered along the chain they refer to. In names and notes the source's numbering stands.

In the first test the target is T1, human GITR, membrane bound (on …). Kind of test: FACS binding to 3A9-hGITR transfectant, Geo-MFI (PE); EC50 table beside the curves; unit from the axis. For orientation: Flow cytometry measures light scatter and fluorescence of single cells or particles in a stream.
What is called EC50 is the concentration needed to bring the measured effect to its halfway point. A low value points to greater potency. The molecule B1 displayed a half-maximal effective concentration (EC50) of 3.7 nM.
The same measure, in the same setting: with B2 the figure was 1.03 nM; with B3, 16.6 nM; with B4, 1.38 nM.
The molecule B5 gave an EC50 of 246 nM.
Consider B6, for which a half-maximal response (EC50) required 60.3 nM.
Same read-out and setting: with B7 the figure was 620 nM.
As to B8, the EC50 was determined as 417 nM.
Still for that read-out and setting: with B9 the figure was 171 nM; with B10, 2.87 nM.
On the same count and under the same terms, with B11 the figure was 20.4 nM; with B12, 1.07 nM.
Turning to B13, the half-maximal effective concentration (EC50) was 21.7 nM.
On to B14, for which the concentration giving a half-maximal response (EC50) worked out at 187 nM.
On the same count and under the same terms, with B15 the figure was 246 nM; with B16, 0.674 nM; with B17, 183 nM.
Take B18: it took 51.8 nM to reach a half-maximal effect (EC50).
As for B19, the concentration giving a half-maximal response (EC50) is 1.22 nM.
Still for that read-out and setting: with B20 the figure was 62 nM; with B21, approximately 1250 nM.
The same measure, in the same setting: the same measure for B22: 1.33 nM; for B23: 3.53 nM.

Another test has the same target. The test is described as above. This is another data set of the same source.
For B24, the EC50 amounted to 0.334 nM.
As to B25, the EC50 came out at 0.401 nM.
In turn, B26 displayed an EC50 of 0.757 nM.
The same measure, in the same setting: the same measure for B27: 1.5 nM.
For B28, the EC50 stood at 0.311 nM.
The same measure, in the same setting: with B29 the figure was 0.638 nM; with B30, 3.33 nM.
On the same count and under the same terms, with B31 the figure was 1.44 nM; with B32, 0.797 nM; with B33, 0.58 nM.
B34 had an EC50 of 0.349 nM.
For the molecule B35, the concentration giving a half-maximal response (EC50) turned out to be 2.29 nM.
Same read-out and setting: the same measure for B36: 19.1 nM; for B37: 54 nM; for B38: 0.968 nM.
Molecule B39 had an EC50 of 0.683 nM.
Still for that read-out and setting: the same measure for B40: 3.51 nM.
Turning to B41, a half-maximal response (EC50) required 0.34 nM.
The same measure, in the same setting: the same measure for B42: 1.42 nM.
